From publication PMC2726289

Molecular target: peptide from Dynamin1 proline-rich domain
Experiment: not stated; monomeric GRAF1 SH3 domain with a peptide from the Dynamin1 proline-rich domain; method in Figure S2D or the supplement, not shown

B1: Monomeric GRAF1 SH3 domain (domain or fragment)
chain: TPFRKAKALYACKAEHDSELSFTAGTVFDNVHPSQEPGWLEGTLNGKTGLIPENYVEFL
B1 gave a Kd of 106 µM.
